Data from PMC3767815, “A Novel α-L-Arabinofuranosidase of Family 43 Glycoside Hydrolase (Ct43Araf) from Clostridium thermocellum” (PLoS ONE, 2013).

B1: CtGH43 (Acetivibrio thermocellus ATCC 27405) (protein)
chain: AADYPIFSQRFTADPAAVVYNGRLYIYCSHDSDATPGQSTYNIPDITCISTDDLKNWTDHGEVFNAKRDSRWASVSWAPSIVYRNNKFYLYYGNGGNGIGVAVSDSPTGPFKDPLPGPLVSWNTPGVQPAQNMWLFDPGVFVDDDGQAYMYFGGNGQNNIRVIKLGNDMISTVGSAMTMSAPRFFEAAYMHKYNGKYYFSYASDFSQGASKIEYMMSDKPTTGFQYKGVILPQPPDNYSNNNHHAIVEYKGNWYVVYHNRTVAKQRGLDPVYQRNVCIDQMFYNADGTIKQVVPTVDGLKQ
notes: truncated: N-terminal GH43 catalytic module only (903 bp), both CBM6 removed; His6-tagged, pET-28a(+), E. coli BL21(DE3) pLysS; 34 kDa
B2: Ct43Araf (Acetivibrio thermocellus ATCC 27405) (protein)
chain: AADYPIFSQRFTADPAAVVYNGRLYIYCSHDSDATPGQSTYNIPDITCISTDDLKNWTDHGEVFNAKRDSRWASVSWAPSIVYRNNKFYLYYGNGGNGIGVAVSDSPTGPFKDPLPGPLVSWNTPGVQPAQNMWLFDPGVFVDDDGQAYMYFGGNGQNNIRVIKLGNDMISTVGSAMTMSAPRFFEAAYMHKYNGKYYFSYASDFSQGASKIEYMMSDKPTTGFQYKGVILPQPPDNYSNNNHHAIVEYKGNWYVVYHNRTVAKQRGLDPVYQRNVCIDQMFYNADGTIKQVVPTVDGLKQLKYVDPYTKNLAVTMHKESGIETEECSEGGRNVAFIENGDWIQVKGVDFGNVGPTSFEARVASATNGGNIEIRLDSPTGTLIGTCKVEGTGDWQKWVTKTCSVSKVTGVHDLFFRFTGGSGYLFNFSWWKFNSDATPTPTPPPQPSTVPVTERSAFSKIEVEDFNDIKSSTIQKIGTPNGGSGIGYIENGDWLAYKNIDFGNGATTFKALVASTLSPNIELRLDSPTGTLIGTLKVAATGGFNAYEEQSCNISKVTGKHDLYLVFSGAVNIDWFTFGGSSGII
notes: CtGH43-CtCBM6A-CtCBM6B; His6-tagged, pET-21a(+), E. coli BL21(DE3); 63 kDa; gene range printed 1545911 to 1547651; modules 903, 405 and 402 bp; forward primer starts at AADYP

What was measured:
purified protein [1] = substrate: O=[N+]([O-])c1ccc(O[C@@H]2OC[C@H](O)[C@H](O)[C@H]2O)cc1; experiment: purified protein; assay type: biochemical, Acetivibrio thermocellus; conditions: 50°C, 20 mM sodium phosphate pH 5.7 (table note; methods print 50 mM sodium phosphate pH 6.0), substrate 20–500 µM
purified protein [2] = substrate: O=[N+]([O-])c1ccc(O[C@@H]2O[C@@H](CO)[C@H](O)[C@H]2O)cc1; experiment: purified protein; assay type: biochemical, Acetivibrio thermocellus; conditions: 50°C, 20 mM sodium phosphate pH 5.7 (table note; methods print 50 mM sodium phosphate pH 6.0), substrate 20–500 µM

Row | Protein | Km (purified protein [1]) [mg/mL] | kcat (purified protein [1]) [s⁻¹] | Km (purified protein [2]) [mg/mL] | kcat (purified protein [2]) [s⁻¹]
1 | B1 | 0.097 ± 0.004 | 3.533 ± 0.0333 | 0.04 ± 0.004 | 4.783 ± 0.0167
2 | B2 | 0.093 ± 0.003 | 3.5 ± 0.0783 | 0.05 ± 0.002 | 4.717 ± 0.0333
